# Results taken from patent publication US11473073B2, “Aminopeptidases for protein hydrolyzates” (DUPONT NUTRITION BIOSCIENCES APS, priority 2015, dated 2022).
# B1: TRI031: fungal aminopeptidase type-2 (pepN_2), NCBI XP_001258675 from Neosartorya fischeri NRRL 181, expressed in Trichoderma reesei (protein)
# chain: MQTFGAFLVSFLAASGLAAANGPGWDWKPPVHPKVLPQMIHLWDLMHGAQKLEDFAYAYPERNRVFGGPAHEDTVNYLYRELKKTGYYDVYKQPQVHQWTRADQALTVDGKSYVATTMTYSPSVNVTAPLAVVNNLGCVESDYPADLKGKIALVSRGECPFATKSVLSAKAGAAAALVYNNIEGSMAGTLGGPTSELGPYAPIAGISLADGQALIQMIQAGTVTANLWIDSKVENRTTYNVIAQTKGGDPNNVVALGGHTDSVEAGPGINDDGSGIISNLVVAKALTRFSVKNAVRFCFWTAEEFGLLGSSYYVNSLNATEKAKIRLYLNFDMIASPNYALMIYDGDGSAFNLTGPAGSAQIERLFEDYYKSIRKPFVPTEFNGRSDYEAFILNGIPAGGIFTGAEAIKTEEQAKLFGGQAGVALDANYHAKGDNMTNLNREAFLINSKATAFAVATYANSLDSIPSRNMSTVVKRSQLEQAKKSTPHTHTGGTGCYKDRVEQ
# modifications: Synthetic peptide with leader sequence
# notes: fungal aminopeptidase type-2 (pepN_2), NCBI XP_001258675 from Neosartorya fischeri NRRL 181, expressed in Trichoderma reesei
# B2: TRI035: fungal aminopeptidase type-2 (pepN_2), NCBI XP_001273779 from Aspergillus clavatus NRRL 1 (protein)
# chain: MQTFGAFLVSFLAASGLAAANAPGGPGGHGRKLPVNPKTFPNEIRLKDLLHGSQKLEDFAYAYPERNRVFGGQAHLDTVNYLYRELKKTGYYDVYKQPQVHQWTRADQSLTLGGDSIQASTMTYSPSVNVTAPLSLVSKLGCAEGDYSADVKGKIALVSRGECSFAQKSVLSAKAGAVATIVYNNVDGSLAGTLGGATSELGPYSPIIGITLAAGQDLVARLQAAPTEVSLWIDSKVENRTTYNVIAQTKGGDPNNVVALGGHTDSVENGPGINDDGSGVISNLVVAKALTRYSVKNAVRFCFWTAEEFGLLGSNYYVDNLSPAELAKIRLYLNFDMIASPNYALMIYDGDGSAFNLTGPPGSAQIESLFENYYKSIKQGFVPTAFDGRSDYEGFILKGIPAGGVFTGAESLKTEEQARLFGGQAGVALDANYHAKGDNMTNLNHKAFLINSRATAFAVATYANNLSSIPPRNATVVKRESMKWTKREEPHTHGADTGCFASRVKE
# modifications: Synthetic peptide with leader sequence
# Columns and labels:
# Assay type in all cases: biochemical
# gluten [1] = assay: Glutamic acid liberation in gluten hydrolyses (pH and temperature optimum)
# Description: The liberation of glutamic acid is an important quality parameter in vegetable protein hydrolyses such as soy or gluten hydrolyses. The liberated glutamic acid can be perceived as the so-called “umami-flavor”. In order to determine the effect of the initially applied pH in gluten hydrolyses in terms of glutamic acid and glutamine liberation, the initial pH of a gluten hydrolyses was adjusted just after the liquefaction of the gluten after 15-30 min with 1 M HCl. Gluten was treated with Glutaminase (Amano, Japan). In addition, gluten was treated with FoodPro Alkaline Protease, FoodPro PNL as well as PepN 2 (Neosartorya fischeri). After 20 hr, the hydrolysis was terminated employing ultrafiltration (10 kDa cut-off, Sartorius Stedium Biotech, Göttingen, Germany). The permeate was applied for the enzymatic glutamic acid analyses (enzymatic L-glutamic acid analysis kit, Roche, Mannheim, Germany).
# In order to determine the effect of the applied temperature during the gluten hydrolyses in terms of glutamic acid and glutamine liberation, the initial pH was adjusted with 1 M HCl to pH 7.0 just after the liquefaction of the gluten suspension after 15-30 min. Gluten was combined with Glutaminase (Amano, Japan). In addition, gluten was combined FOODPRO® Alkaline Protease, FOODPRO® PNL as well as PepN 2 (Neosartorya fischeri). […]
# [2] = tested on: whey protein isolate (WPI); assay: Degree of hydrolysis of WPI with endopeptidases plus PepN; conditions: for Degree of hydrolysis: 50° C., 18 hr
# Description: Enzyme activities of PepN 1 Lactobacillus helveticus ATCC® 12046, PepN 1 Aspergillus oryzae and from PepN 2 from Aspergillus clavatus (TRI035) were determined according to Stressler, Eisele et al. (2013, infra). PepN 1 from L. helveticus was expressed and purified as described by Stressler, Eisele et al. (2013, infra).
# The PepN 1 and 2 aminopeptidases were standardized to the activity range of 2.5-200 nkat*mL^−1. For protein hydrolyses, 1% (w/wWPI) FOODPRO® Alkaline Protease (DuPont, Brabrand, Denmark) and 1% (w/wWPI) FOODPRO® PNL (DuPont, Brabrand, Denmark) were added to the whey protein isolate suspension (WPI; LACPRODAN® 9224, Arla Ingredients, Viby, Denmark) with an initial pH of 7.0. Following the endopeptidases addition, the WPI was mixed and 200 μL were transferred to each well of a 96-well microtiter plate. The hydrolysis was conducted at 50° C. without pH control and terminated after 18 hr by addition of 20 μL of 2 M TCA. Prior to the determination of the DH (Nielsen, Petersen et al., 2001, infra), all samples were filtered 0.22 μm.
# soy = assay: Degree of hydrolysis in soy hydrolyses with and without 185 mM NaCl; parameters: Degree of hydrolysis: unit not given here; conditions: for Degree of hydrolysis: SOY, 50° C., 18 hr
# Description: (§1) Sodium chloride is frequently applied in the food industry to reduce the microbial contamination risk in protein hydrolyses. Pre-hydrolysed 10% (w/w) soy (SUPRO® 760, DuPont, Brabrand, Denmark) and gluten (Sigma-Aldrich, Schnelldorf, Germany) was prepared by addition of 1% (w/wprotein) FOODPRO® Alkaline Protease (DuPont, Brabrand, Denmark) and 1% (w/wprotein) FOODPRO® PNL (DuPont, Brabrand, Denmark). The hydrolyses were performed at 50° C. at pH 7.0 (without pH control) for 18 hr (heat inactivation after 18 hr; 90° C.; 10 min). Subsequently, the hydrolyses were divided in sodium chloride containing (185 mM) and non-salt containing hydrolyses. 150 μL of each pre-hydrolysed protein suspension was combined with differently standardized Aspergillus clavatus PepN 2 as indicated in Table 3. The hydrolyses were conducted at 50° C. without pH control and terminated after 18 hr by addition of 20 μL of 2 M TCA. Prior to the determination of the DH (Nielsen, Petersen et al. 2001, infra), all samples were filtered 0.22 μm.
# gluten [3] = assay: Degree of hydrolysis in gluten hydrolyses with and without 185 mM NaCl; parameters: Degree of hydrolysis: unit not given here; conditions: for Degree of hydrolysis: Gluten, 50° C., 18 hr
# Description: as §1
# [4] = 185 mM NaCl, protein concentration 0.2 mg/mL
# [5] = 185 mM NaCl, protein concentration 0.3 mg/mL
# [6] = 185 mM NaCl, protein concentration 0.4 mg/mL
# [7] = 185 mM NaCl, protein concentration 0.5 mg/mL
# [8] = reference (no salt), protein concentration 0.2 mg/mL
# [9] = reference (no salt), protein concentration 0.3 mg/mL
# [10] = reference (no salt), protein concentration 0.4 mg/mL
# [11] = reference (no salt), protein concentration 0.5 mg/mL
molecule,measurement,setting,value
B1,temperature at which PepN 2 performed most efficient (glutamic acid liberation),"gluten [1]; gluten hydrolysis 20 h, initial pH 7.0, range 40-60° C., FIG. 3",60 °C
same,pH range in which PepN 2 performed more efficient (glutamic acid liberation),"gluten [1]; gluten hydrolysis 20 hr with Glutaminase, FoodPro Alkaline Protease, FoodPro PNL, compared to pH 6.0, FIG. 2",7.0-9.0
B2,Degree of hydrolysis,[2]; PepN dosage 2.5 nkat/mL in stock solution,15%
same,Degree of hydrolysis,[2]; PepN dosage 5 nkat/mL in stock solution,17%
same,Degree of hydrolysis,[2]; PepN dosage 10 nkat/mL in stock solution,17%
same,Degree of hydrolysis,[2]; PepN dosage 25 nkat/mL in stock solution,20%
same,Degree of hydrolysis,[2]; PepN dosage 50 nkat/mL in stock solution,24%
same,Degree of hydrolysis,[2]; PepN dosage 75 nkat/mL in stock solution,26%
same,Degree of hydrolysis,[2]; PepN dosage 100 nkat/mL in stock solution,35%
same,Degree of hydrolysis,[2]; PepN dosage 200 nkat/mL in stock solution,36%
same,higher DH than the PepN 1 aminopeptidases,[2]; at the two highest dosages,at least 25%
same,Degree of hydrolysis,soy; [4],10
same,Degree of hydrolysis,soy; [5],11
same,Degree of hydrolysis,soy; [6],11
same,Degree of hydrolysis,soy; [7],12
same,Degree of hydrolysis,soy; [8],11
same,Degree of hydrolysis,soy; [9],12
same,Degree of hydrolysis,soy; [10],12
same,Degree of hydrolysis,soy; [11],12
same,influence of 185 mM NaCl on the determined degree of hydrolysis,soy; soy hydrolyses,no influence
same,Degree of hydrolysis,"gluten [3]; 185 mM NaCl, protein concentration 0.1 mg/mL",14
same,Degree of hydrolysis,gluten [3]; [4],15
same,Degree of hydrolysis,"gluten [3]; 185 mM NaCl, protein concentration 0.25 mg/mL",15
same,Degree of hydrolysis,gluten [3]; [5],16
same,Degree of hydrolysis,gluten [3]; [6],17
same,Degree of hydrolysis,gluten [3]; [7],18
same,Degree of hydrolysis,"gluten [3]; reference (no salt), protein concentration 0.1 mg/mL",14
same,Degree of hydrolysis,gluten [3]; [8],16
same,Degree of hydrolysis,"gluten [3]; reference (no salt), protein concentration 0.25 mg/mL",17
same,Degree of hydrolysis,gluten [3]; [9],16
same,Degree of hydrolysis,gluten [3]; [10],17
same,Degree of hydrolysis,gluten [3]; [11],18
same,influence of 185 mM NaCl on the determined degree of hydrolysis,gluten [3]; gluten hydrolyses,no influence
